Measurements taken from patent US20130131319A1 (Chugai, published 2013).
Substitutions are numbered along the chain they refer to. Names may count otherwise.

Columns and labels:
[1] = target: T1, soluble human FcRn (complex of FcRn and beta2-microglobulin) (human, UniProt P55899 24-297; P61769 21-119); test: Biacore steady-state, antibody immobilized, pH 6.0, 25C
T1 construct: Secreted from HEK293H
Protocol: (§1) The antibodies were tested as a test substance after direct immobilization onto Series S Sensor Chip CM5. Using an amino-coupling kit according to the supplier's instruction manual, the antibodies were immobilized onto Sensor Chip so as to secure an immobilization amount of 500 RU. The running buffer used was 50 mmol/l Na-phosphate/150 mmol/l NaCl containing 0.05% (v/v %) Surfactant P20 (pH 6.0).
(§2) With the prepared sensor chips, assay was carried out using as a running buffer, 50 mmol/l Na-phosphate/150 mmol/l NaCl containing 0.05% Surfactant P20 (pH 6.0) or 50 mmol/l Na-phosphate/150 mmol/l NaCl containing 0.05% Surfactant P20 (pH 7.4). Assays were carried out exclusively at 25 degrees C. The diluted human FcRn solutions and running buffer as a reference solution were injected at a flow rate of 5 microliter/min for ten minutes to allow for human FcRn to interact with the antibody on the chip. Next, the running buffer was injected at a flow rate of 5 microliter/min for one minute to monitor the dissociation of FcRn. […]
(§3) The assay results were analyzed using Biacore T100 Evaluation Software (Ver. 2.0.1). By a steady-state affinity method, the dissociation constant (KD) was calculated from the assay results at six different FcRn concentrations.

[2] = target: T1, soluble human FcRn (complex of FcRn and …); test: Biacore steady-state, antibody immobilized, pH 7.4, 25C; pH 7.4
Protocol: as §1, §2, §3

[3] = target: T1, soluble human FcRn (complex of FcRn and …); test: Biacore steady-state, antibody immobilized, pH 6.0, 25C; pH 6.0
Protocol: as §1, §2, §3

[4] = target: T1, soluble human FcRn (complex of FcRn and …); test: Biacore steady-state, antibody immobilized, pH 7.4, 25C
Protocol: as §1, §2, §3

[5] = target: T1, soluble human FcRn (complex of FcRn and …); test: Biacore pH 7.0 (Example 9 method)
Protocol: (§4) The binding between antibody and human FcRn was kinetically analyzed using Biacore T100 (GE Healthcare). An appropriate amount of protein L (ACTIGEN) was immobilized onto Sensor chip CM4 (GE Healthcare) by the amine-coupling method, and the chip was allowed to capture an antibody of interest. Then, diluted FcRn solutions and running buffer as a reference solution were injected to allow for human FcRn to interact with the antibody captured on the sensor chip. The running buffer used comprised 50 mmol/l sodium phosphate, 150 mmol/l NaCl, and 0.05% (w/v) Tween20 (pH 7.0). FcRn was diluted using each buffer. The chip was regenerated using 10 mmol/l glycine-HCl (pH 1.5). Assays were carried out at 25 degrees C.
(§5) KD (M) of each antibody was derived from the sensorgram data using Biacore T100 Evaluation Software (GE Healthcare), which simultaneously fits the association and dissociation phases of the sensorgrams and globally fits all curves in the working set. Sensorgrams were fit to 1:1 binding model, the “Langmuir binding” model, supplied by Biacore T100 Evaluation Software. For some of the binding interactions, KD was derived by nonlinear regression analysis of plots of Req, the equilibrium binding response, versus the log of the analyte concentration using an equilibrium-based approach.

[6] = target: T1, soluble human FcRn (complex of FcRn and …); test: Biacore pH 7.0 (Example 9 method); remark: listed apart in the source
Protocol: as §4, §5

[7] = target: T1, soluble human FcRn (complex of FcRn and …); test: Biacore pH 7.0
Protocol: (§6) The binding between antibody and human FcRn was kinetically analyzed using Biacore T100 (GE Healthcare). […] An appropriate amount of protein L (ACTIGEN) was immobilized onto Sensor chip CM4 (GE Healthcare) by the amino coupling method, and the chip was allowed to capture an antibody of interest. Then, diluted FcRn solutions and running buffer (as a reference solution) were injected to allow human FcRn to interact with the antibody captured on the sensor chip. The running buffer used comprised 50 mmol/l sodium phosphate, 150 mmol/l NaCl, and 0.05% (w/v) Tween20 (pH 7.0). FcRn was diluted using each buffer. The chip was regenerated using 10 mmol/l glycine-HCl (pH 1.5). Assays were carried out exclusively at 25 degrees C. The association rate constant ka (1/Ms) and dissociation rate constant kd (1/s), both of which are kinetic parameters, were calculated based on the sensorgrams obtained in the assays, and KD (M) of each antibody for human FcRn was determined from these values. Each parameter was calculated using Biacore T100 Evaluation Software (GE Healthcare).

[8] = target: T1, soluble human FcRn (complex of FcRn and …); test: Biacore pH 7.0; remark: listed apart in the source
Protocol: as §6

[9] = target: T1, soluble human FcRn (complex of FcRn and …); test: Biacore pH 7.0; remark: listed apart in the source
Protocol: as §6

[10] = target: T1, soluble human FcRn (complex of FcRn and …); test: Biacore pH 7.0; remark: listed apart in the source
Protocol: as §6

human IL-6 (TORAY) [11] = target: T2, human IL-6 (TORAY) (human, UniProt P05231 30-212, limits assumed); test: Biacore, antibody on protein A/G, IL-6 analyte, 37C, pH 7.4
T2 construct: also called hIL-6
Protocol: (§7) Assay was carried out using 10 mmol/l ACES/150 mmol/l NaCl containing 0.05% Surfactant P20 (pH 7.4 and pH 6.0) as a running buffer. After antibodies were bound to recombinant proteinA/G (Thermo Scientific) immobilized on sensor chips using an amino-coupling method, appropriate concentrations of human IL-6 (TORAY) as an analyte were injected. Assays were carried out at 37 degrees C. The assay results were analyzed using Biacore T100 Evaluation Software (GE Healthcare), and the association rate constant, ka (1/Ms), and the dissociation rate constant, kd (1/s), were calculated from the assay results. […] Furthermore, the pH-dependent binding was evaluated to calculate the KD ratio between pH 7.4 and pH 6.0 for each antibody.

human IL-6 (TORAY) [12] = target: T2, human IL-6 (TORAY); test: Biacore, antibody on protein A/G, IL-6 analyte, 37C, pH 5.5
Protocol: as §7

[13] = target: T3, soluble human plexin A1 (hsPlexin A1) (human, UniProt Q9UIW2 27-1243); test: Biacore, antibody on protein A/G, hsPlexin A1 analyte, 37C, pH 7.4
T3 construct: range 27-1243
T3 sequence (Q9UIW2 other isoform, or with tags, fused parts or gaps limits assumed): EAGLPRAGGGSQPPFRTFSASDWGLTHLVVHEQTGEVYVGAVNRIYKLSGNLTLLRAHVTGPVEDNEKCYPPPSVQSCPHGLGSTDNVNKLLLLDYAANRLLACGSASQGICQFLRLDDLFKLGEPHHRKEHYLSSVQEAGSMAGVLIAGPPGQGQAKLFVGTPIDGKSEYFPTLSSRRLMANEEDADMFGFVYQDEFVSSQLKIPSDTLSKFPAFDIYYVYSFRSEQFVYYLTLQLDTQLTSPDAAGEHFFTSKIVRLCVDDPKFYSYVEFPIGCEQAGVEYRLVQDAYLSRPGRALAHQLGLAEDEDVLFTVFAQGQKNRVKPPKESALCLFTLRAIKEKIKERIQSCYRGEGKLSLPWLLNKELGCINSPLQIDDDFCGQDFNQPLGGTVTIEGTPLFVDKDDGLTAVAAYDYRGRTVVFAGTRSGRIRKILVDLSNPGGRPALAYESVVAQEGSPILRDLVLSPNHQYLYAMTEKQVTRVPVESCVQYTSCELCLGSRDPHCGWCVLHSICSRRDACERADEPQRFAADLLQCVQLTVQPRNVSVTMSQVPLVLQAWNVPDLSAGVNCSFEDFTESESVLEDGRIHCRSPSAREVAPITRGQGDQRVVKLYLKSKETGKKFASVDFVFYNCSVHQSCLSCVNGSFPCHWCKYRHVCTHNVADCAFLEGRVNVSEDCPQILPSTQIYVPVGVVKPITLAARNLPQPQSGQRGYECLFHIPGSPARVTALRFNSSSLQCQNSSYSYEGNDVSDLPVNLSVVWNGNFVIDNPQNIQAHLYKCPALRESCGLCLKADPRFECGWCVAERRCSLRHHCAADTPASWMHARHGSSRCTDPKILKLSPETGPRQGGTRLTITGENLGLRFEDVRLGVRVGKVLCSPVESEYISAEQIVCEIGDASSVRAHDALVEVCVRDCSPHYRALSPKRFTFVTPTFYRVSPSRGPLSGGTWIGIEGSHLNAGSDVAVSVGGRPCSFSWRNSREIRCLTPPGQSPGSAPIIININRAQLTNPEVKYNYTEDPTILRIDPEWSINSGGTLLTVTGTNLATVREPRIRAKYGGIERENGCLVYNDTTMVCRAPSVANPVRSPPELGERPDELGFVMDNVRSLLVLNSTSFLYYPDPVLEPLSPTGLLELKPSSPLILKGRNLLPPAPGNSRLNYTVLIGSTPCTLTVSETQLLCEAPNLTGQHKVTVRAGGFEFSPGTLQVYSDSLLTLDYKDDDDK
Protocol: (§8) Assay was carried out using 10 mmol/l ACES/150 mmol/l NaCl containing 0.05% Surfactant P20 (pH 7.4 and pH 6.0) as a running buffer. […] Assays were carried out at 37 degrees C. The assay results were analyzed using Biacore T100 Evaluation Software (GE Healthcare), and the association rate constant, ka (1/Ms), and the dissociation rate constant, kd (1/s), were calculated from the assay results. Then the KD (M) was calculated from ka and kd (Table 15). Furthermore, the pH-dependent binding was evaluated to calculate the KD ratio between pH 7.4 and pH 6.0 for each antibody.

[14] = target: T3, soluble human plexin A1 (hsPlexin A1); test: Biacore, antibody on protein A/G, hsPlexin A1 analyte, 37C, pH 6.0
Protocol: as §8

T1 sequence (P55899 24-297 limits assumed, chain 1 of 2): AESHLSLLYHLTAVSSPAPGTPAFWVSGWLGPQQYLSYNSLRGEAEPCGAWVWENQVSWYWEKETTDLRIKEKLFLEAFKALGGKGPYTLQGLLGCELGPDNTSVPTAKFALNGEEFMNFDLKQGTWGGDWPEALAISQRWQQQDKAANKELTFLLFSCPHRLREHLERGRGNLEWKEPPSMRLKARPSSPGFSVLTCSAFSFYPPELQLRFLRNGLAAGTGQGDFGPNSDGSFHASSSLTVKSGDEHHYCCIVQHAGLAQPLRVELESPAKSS
T1 sequence (P61769 21-119 limits assumed, chain 2 of 2): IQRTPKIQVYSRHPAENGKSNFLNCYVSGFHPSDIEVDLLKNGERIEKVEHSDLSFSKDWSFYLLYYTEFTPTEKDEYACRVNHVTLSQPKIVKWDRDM

B1: Fv4-IgG1 (antibody)
heavy: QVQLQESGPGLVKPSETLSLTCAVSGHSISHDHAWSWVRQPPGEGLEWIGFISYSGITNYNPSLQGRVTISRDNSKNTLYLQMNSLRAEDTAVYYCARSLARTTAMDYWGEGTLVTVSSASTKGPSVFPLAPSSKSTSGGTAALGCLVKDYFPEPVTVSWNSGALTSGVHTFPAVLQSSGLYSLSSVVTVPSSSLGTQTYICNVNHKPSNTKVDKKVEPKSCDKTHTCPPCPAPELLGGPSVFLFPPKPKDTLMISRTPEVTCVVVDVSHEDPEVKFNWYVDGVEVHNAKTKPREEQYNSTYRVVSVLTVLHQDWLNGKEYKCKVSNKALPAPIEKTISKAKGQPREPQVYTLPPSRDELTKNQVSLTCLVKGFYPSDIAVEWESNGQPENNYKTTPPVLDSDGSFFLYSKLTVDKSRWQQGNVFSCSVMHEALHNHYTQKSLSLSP
light: DIQMTQSPSSLSASVGDSVTITCQASTDISSHLNWYQQKPGKAPELLIYYGSHLLSGVPSRFSGSGSGTDFTFTISSLEAEDAATYYCGQGNRLPYTFGQGTKVEIERTVAAPSVFIFPPSDEQLKSGTASVVCLLNNFYPREAKVQWKVDNALQSGNSQESVTEQDSKDSTYSLSSTLTLSKADYEKHKVYACEVTHQGLSSPVTKSFNRGEC
notes: VH3-IgG1 and VL3-CK; copies: 2 + 2
[1]
  Kd: 1990 nM

B2: Fv4-IgG1-v1 (antibody)
heavy: QVQLQESGPGLVKPSETLSLTCAVSGHSISHDHAWSWVRQPPGEGLEWIGFISYSGITNYNPSLQGRVTISRDNSKNTLYLQMNSLRAEDTAVYYCARSLARTTAMDYWGEGTLVTVSSASTKGPSVFPLAPSSKSTSGGTAALGCLVKDYFPEPVTVSWNSGALTSGVHTFPAVLQSSGLYSLSSVVTVPSSSLGTQTYICNVNHKPSNTKVDKKVEPKSCDKTHTCPPCPAPELLGGPSVFLFPPKPKDTLYITREPEVTCVVVDVSHEDPEVKFNWYVDGVEVHNAKTKPREEQYNSTYRVVSVLTVLHQDWLNGKEYKCKVSNKALPAPIEKTISKAKGQPREPQVYTLPPSRDELTKNQVSLTCLVKGFYPSDIAVEWESNGQPENNYKTTPPVLDSDGSFFLYSKLTVDKSRWQQGNVFSCSVMHEALHNHYTQKSLSLSP
light: B1 light
notes: copies: 2 + 2
[2]
  Kd: 36600 nM
[3]
  Kd: 320 nM

B3: Fv4-IgG1-v2 (antibody)
heavy: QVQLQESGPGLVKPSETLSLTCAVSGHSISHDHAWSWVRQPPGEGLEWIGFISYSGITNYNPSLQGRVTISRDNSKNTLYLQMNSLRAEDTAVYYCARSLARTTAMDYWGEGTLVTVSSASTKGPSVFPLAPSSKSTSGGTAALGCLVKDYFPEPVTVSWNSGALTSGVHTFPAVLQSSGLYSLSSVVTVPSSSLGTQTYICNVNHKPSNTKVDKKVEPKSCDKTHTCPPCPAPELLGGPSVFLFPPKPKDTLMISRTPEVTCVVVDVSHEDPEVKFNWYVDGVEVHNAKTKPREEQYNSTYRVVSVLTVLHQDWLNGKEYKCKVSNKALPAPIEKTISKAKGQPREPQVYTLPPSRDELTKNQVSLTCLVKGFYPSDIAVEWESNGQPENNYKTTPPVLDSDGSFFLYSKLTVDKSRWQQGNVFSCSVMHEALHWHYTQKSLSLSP
light: B1 light
notes: copies: 2 + 2
[4]
  Kd: 11000 nM
[1]
  Kd: 110 nM

B4: VH3/L (WT)-M73 (antibody)
heavy: QVQLQESGPGLVKPSETLSLTCAVSGHSISHDHAWSWVRQPPGEGLEWIGFISYSGITNYNPSLQGRVTISRDNSKNTLYLQMNSLRAEDTAVYYCARSLARTTAMDYWGEGTLVTVSSASTKGPSVFPLAPSSKSTSGGTAALGCLVKDYFPEPVTVSWNSGALTSGVHTFPAVLQSSGLYSLSSVVTVPSSNFGTQTYTCNVDHKPSNTKVDKTVERKSCVECPPCPAPPVAGPSVFLFPPKPKDTLMISRTPEVTCVVVDVSQEDPEVQFNWYVDGVEVHNAKTKPREEQFNSTFRVVSVLTVVHQDWLNGKEYKCKVSNKGLPAPIEKTISKTKGQPREPQVYTLPPSQEEMTKNQVSLTCLVKGFYPSDIAVEWESNGQPENNYKTTPPMLDSDGSFFLYSKLTVDKSRWQEGNVFSCSVMHEALHAHYTQKSLSLSP
light: not shown
notes: copies: 2 + 2
[5]
  Kd: 14000 nM
[6]
  Kd: 14000 nM

B5: IgG1-F162 (antibody)
heavy: B2 heavy with Y254W, T256S, E258T, M430Y, N436Y
light: not shown
notes: copies: 2 + 2
[7]
  Kd: 170 nM

B6: IgG1-F163 (antibody)
heavy: B2 heavy with Y254W, T256S, E258T, M430F, N436Y
light: not shown
notes: copies: 2 + 2
[7]
  Kd: 350 nM

B7: IgG1-F292 (antibody)
heavy: B2 heavy with S241K, T256S, E258T, V310P, E384A, M430I, N436Y
light: not shown
notes: copies: 2 + 2
[8]
  Kd: 20 nM

B8: IgG1-F308 (antibody)
heavy: B2 heavy with S241K, Y254W, T256S, E258T, V310P, E384A, M430Y, N436Y
light: not shown
notes: copies: 2 + 2
[8]
  Kd: 18 nM

B9: IgG1-F311 (antibody)
heavy: B2 heavy with S241K, Y254W, T256S, E258T, V310P, M430F, N436Y
light: not shown
notes: copies: 2 + 2
[8]
  Kd: 29 nM

B10: IgG1-F376 (antibody)
heavy: B2 heavy with S241K, T256S, D272F, N288E, V310P, N436Y
light: not shown
notes: copies: 2 + 2
[9]
  Kd: 9.5 nM

B11: IgG1-F379 (antibody)
heavy: B2 heavy with S241K, Y254W, T256S, V310P, Q313A, M430Y, N436Y
light: not shown
notes: copies: 2 + 2
[9]
  Kd: 10 nM

B12: IgG1-F403 (antibody)
heavy: B2 heavy with Y254M, T256S, E258T, P259V, T309A, M430E, N436W
light: not shown
notes: M428E as printed; may be a misprint of M428L; copies: 2 + 2
[9]
  Kd: 51 nM

B13: IgG1-F455 (antibody)
heavy: B2 heavy with Y254M, T256S, E258T, P259V, T309Q, M430Y, N436Y
light: not shown
notes: copies: 2 + 2
[10]
  Kd: 25 nM

B14: CLB8-IgG1 (antibody, V domains shown)
VH: EVQLVESGGKLLKPGGSLKLSCAASGFTFSSFAMSWFRQSPEKRLEWVAEISSGGSYTYYPDTVTGRFTISRDNAKNTLYLEMSSLRSEDTAMYYCARGLWGYYALDYWGQGTSVTVSS
VL: QIVLIQSPAIMSASPGEKVTMTCSASSSVSYMYWYQQKPGSSPRLLIYDTSNLASGVPVRFSGSGSGTSYSLTISRMEAEDAATYYCQQWSGYPYTFGGGTKLEIKR
notes: chimeric anti-IL-6 antibody
Human IL-6 (TORAY) [11]
  Kd: 0.22 nM
  koff: 0.0008 s⁻¹
  kon: 3.6e+06 M⁻¹ s⁻¹
Human IL-6 (TORAY) [12]
  Kd: 0.18 nM
  koff: 0.00066 s⁻¹
  kon: 3.7e+06 M⁻¹ s⁻¹

B15: H16/L13-IgG1 (antibody, V domains shown)
VH: B14 VH with F32H, Y60H, D62H, Y103H
VL: B14 VL with N52H, L53H, Q88H, Y93H
notes: chimeric anti-IL-6 antibody, pH-dependent
Human IL-6 (TORAY) [11]
  Kd: 2.2 nM
  koff: 0.0046 s⁻¹
  kon: 2.1e+06 M⁻¹ s⁻¹
Human IL-6 (TORAY) [12]
  Kd: 16 nM
  koff: 0.0059 s⁻¹
  kon: 370000 M⁻¹ s⁻¹

B16: PX268-IgG1 (antibody, V domains shown)
VH: QSLEESGGDLVKPGASLTLTCTASGFSFSSNYWIYWVRQAPGKGLEWIACIYIGSDSAYYASWAKGRFTISKTSSTTVTLQMTSLTAADTATYFCARWDNSGRALKLWGPGTLVTVSS
VL: QMLTQTASPVSAAVGGTVTIKCQSSQSVADNNHLSWYQQKPGQPPKLLIYFASTLASGVSSRFKGSGSGTQFTLTISDVQCDDAATYYCLGNYDCGSADCHAFGGGTEVVVKR
notes: chimeric anti-plexin A1 antibody
[13]
  Kd: 5.4 nM
  koff: 0.00028 s⁻¹
  kon: 52000 M⁻¹ s⁻¹
[14]
  Kd: 4.4 nM
  koff: 0.00027 s⁻¹
  kon: 63000 M⁻¹ s⁻¹

B17: PX141-IgG1 (antibody, V domains shown)
VH: QEQLEESGGGLVKPEGSLTLTCKASGFDFSSYYYMCWVRQAPGKGLEWIGCIVTGSYGRSWYASWAKGRFTITRSTSLNTVTLQLNSLTAADTATYFCARDPFVIASSHYQNLWGPGTLVTVSS
VL: ALVMTQTPSPVSAAVGGTVTISCQSSPNIYNNYLSWYQQKPGQPPKLLIYRASNLETGVPSRFSGSGSGTQFTLTISDVQCDDAATYYCAGYKSYDNDDNAFGGGTEVVVKR
notes: chimeric anti-plexin A1 antibody, pH-dependent
[13]
  Kd: 4.2 nM
  koff: 0.00064 s⁻¹
  kon: 150000 M⁻¹ s⁻¹
[14]
  Kd: 63 nM
  koff: 0.0049 s⁻¹
  kon: 79000 M⁻¹ s⁻¹
